Reference: PMC5493754, “Myosin 7 and its adaptors link cadherins to actin” (Nature Communications, 2017)
Where a chain is given by its changes, count along the chain named. Numbers in names are those of the source.

T1: Myosin 7a MF2 (human, UniProt Q13402-1 1702-2215)
T1 construct: Myosin 7a, human, C-terminal MyTH4-FERM domain (MF2), residues 1702-2215 of UniProt Q13402-1; Thrombin site of the vector replaced by an SSG linker; also called M7a MF2; Myo7a MF2; source: E. coli (BL21-AI, BL21 (DE3) Rosetta or BL21-Gold (DE3)), purified (Histrap, CaptoQ, gel filtration)
T1 sequence (looked up): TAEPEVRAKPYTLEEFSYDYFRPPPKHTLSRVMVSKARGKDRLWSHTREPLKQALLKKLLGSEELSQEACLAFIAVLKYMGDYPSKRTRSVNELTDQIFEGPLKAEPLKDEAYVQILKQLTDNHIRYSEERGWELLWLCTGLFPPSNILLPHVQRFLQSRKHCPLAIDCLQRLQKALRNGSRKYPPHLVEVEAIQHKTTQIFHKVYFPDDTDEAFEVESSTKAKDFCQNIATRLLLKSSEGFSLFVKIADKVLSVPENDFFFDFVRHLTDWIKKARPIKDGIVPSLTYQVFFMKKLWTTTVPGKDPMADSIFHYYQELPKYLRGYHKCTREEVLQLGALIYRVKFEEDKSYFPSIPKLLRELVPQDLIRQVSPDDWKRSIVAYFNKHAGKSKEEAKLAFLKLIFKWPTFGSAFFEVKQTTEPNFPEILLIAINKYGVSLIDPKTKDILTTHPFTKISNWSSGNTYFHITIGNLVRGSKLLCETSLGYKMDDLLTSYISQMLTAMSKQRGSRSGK

T2: Myosin 7b MF2 (human, UniProt Q6PIF6 1605-2116)
T2 construct: also called M7b MF2; Myo7b MF2; source: E. coli (BL21-AI, BL21 (DE3) Rosetta or BL21-Gold (DE3)), purified (Histrap, CaptoQ, gel filtration)
T2 sequence (looked up): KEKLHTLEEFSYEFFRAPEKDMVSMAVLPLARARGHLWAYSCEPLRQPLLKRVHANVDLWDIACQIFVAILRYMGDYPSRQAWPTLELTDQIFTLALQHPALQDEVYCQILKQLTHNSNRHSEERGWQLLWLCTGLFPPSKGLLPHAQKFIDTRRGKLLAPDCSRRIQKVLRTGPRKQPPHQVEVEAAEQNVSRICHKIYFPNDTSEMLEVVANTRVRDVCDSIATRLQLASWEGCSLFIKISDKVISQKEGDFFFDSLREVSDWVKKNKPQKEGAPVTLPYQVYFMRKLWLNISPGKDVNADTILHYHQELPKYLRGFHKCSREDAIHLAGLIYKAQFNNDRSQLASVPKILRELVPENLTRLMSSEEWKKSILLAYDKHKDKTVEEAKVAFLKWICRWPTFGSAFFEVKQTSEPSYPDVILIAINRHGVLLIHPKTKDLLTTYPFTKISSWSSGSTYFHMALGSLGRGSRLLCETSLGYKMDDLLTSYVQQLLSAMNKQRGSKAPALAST

T3: Harmonin NPDZ1 (GST removed, as used in ITC) (human, UniProt Q9Y6N9-1 1-197)
T3 construct: Harmonin-a1 (USH1C), human, residues 1-197 of UniProt Q9Y6N9-1; not shown: GST, N-terminal, cleaved
T3 sequence (looked up): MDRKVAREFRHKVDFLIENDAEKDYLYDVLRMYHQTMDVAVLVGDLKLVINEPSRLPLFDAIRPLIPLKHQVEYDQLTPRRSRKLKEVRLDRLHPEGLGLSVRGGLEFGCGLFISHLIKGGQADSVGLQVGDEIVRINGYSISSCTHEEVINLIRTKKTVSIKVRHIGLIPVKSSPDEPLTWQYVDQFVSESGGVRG

T4: YFP-Myosin 7b MF2 (human, UniProt Q6PIF6 1605-2116)
T4 construct: Myosin 7b, human, MF2, residues 1605-2116 of UniProt Q6PIF6; pET14-YFP vector; also called ^YFPM7b MF2; source: E. coli (BL21-AI, BL21 (DE3) Rosetta or BL21-Gold (DE3)), purified (Histrap, CaptoQ, gel filtration)
T4 sequence (looked up): T2 sequence (looked up)

T5: YFP-FL-harmonin-ΔCter (human, UniProt Q9Y6N9-1 1-542)
T5 construct: Harmonin-a1 (USH1C), human, residues 1-542 of UniProt Q9Y6N9-1; also called ^YFPFL ΔCter; source: E. coli BL21 (DE3) Rosetta, purified (Glutathione Sepharose 4B, size-exclusion chromatography)
T5 sequence (looked up): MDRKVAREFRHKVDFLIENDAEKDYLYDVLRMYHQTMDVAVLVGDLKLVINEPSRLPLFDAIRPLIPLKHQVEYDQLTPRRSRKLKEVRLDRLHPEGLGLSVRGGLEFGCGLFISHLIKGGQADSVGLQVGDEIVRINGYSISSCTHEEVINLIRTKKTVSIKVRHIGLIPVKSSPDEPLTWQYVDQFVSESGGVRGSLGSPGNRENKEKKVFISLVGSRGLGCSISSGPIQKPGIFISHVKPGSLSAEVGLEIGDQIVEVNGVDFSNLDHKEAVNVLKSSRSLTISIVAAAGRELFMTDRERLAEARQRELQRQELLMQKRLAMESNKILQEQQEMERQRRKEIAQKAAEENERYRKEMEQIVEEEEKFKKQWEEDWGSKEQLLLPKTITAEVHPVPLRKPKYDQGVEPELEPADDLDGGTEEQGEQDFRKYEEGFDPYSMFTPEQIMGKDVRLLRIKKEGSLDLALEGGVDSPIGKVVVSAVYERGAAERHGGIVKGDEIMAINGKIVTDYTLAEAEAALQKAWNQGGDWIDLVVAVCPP

T6: YFP-Myosin 7a MF2 (human, UniProt Q13402-1 1702-2215)
T6 construct: Myosin 7a, human, MF2, residues 1702-2215 of UniProt Q13402-1; pET14-YFP vector; also called ^YFPM7a MF2; source: E. coli (BL21-AI, BL21 (DE3) Rosetta or BL21-Gold (DE3)), purified (Histrap, CaptoQ, gel filtration)
T6 sequence (looked up): T1 sequence (looked up)

B1: YFP-Harmonin NPDZ1 (domain or fragment, human, UniProt Q9Y6N9-1 1-197, looked up)
chain: T3 sequence (looked up)
notes: Harmonin-a1 (USH1C), human, residues 1-197 of UniProt Q9Y6N9-1; also called ^YFPNPDZ1; source: E. coli BL21 (DE3) Rosetta, purified (Glutathione Sepharose 4B, size-exclusion chromatography)
B2: Harmonin-a PDZ3c (GST removed, as used in ITC and crystallisation) (domain or fragment, human, UniProt Q9Y6N9-1 428-552, looked up)
chain: QDFRKYEEGFDPYSMFTPEQIMGKDVRLLRIKKEGSLDLALEGGVDSPIGKVVVSAVYERGAAERHGGIVKGDEIMAINGKIVTDYTLAEAEAALQKAWNQGGDWIDLVVAVCPPKEYDDELTFF
notes: Harmonin-a1 (USH1C), human, residues 428-552 of UniProt Q9Y6N9-1; also called PDZ3c (isoA); HarA PDZ3c; not shown: GST, N-terminal, cleaved
B3: Harmonin-a PDZ3c F551V-F552V (domain or fragment, human, UniProt Q9Y6N9-1 428-552, looked up)
chain: B2 chain with F124V, F125V
notes: Harmonin-a1 (USH1C), human, residues 428-552 of UniProt Q9Y6N9-1; also called PDZ3c (isoA) F551V-F552V; source: E. coli BL21 (DE3) Rosetta, purified similarly as wild type
B4: Harmonin-a PDZ2-end (domain or fragment, human, UniProt Q9Y6N9-1 194-552, looked up)
chain: GVRGSLGSPGNRENKEKKVFISLVGSRGLGCSISSGPIQKPGIFISHVKPGSLSAEVGLEIGDQIVEVNGVDFSNLDHKEAVNVLKSSRSLTISIVAAAGRELFMTDRERLAEARQRELQRQELLMQKRLAMESNKILQEQQEMERQRRKEIAQKAAEENERYRKEMEQIVEEEEKFKKQWEEDWGSKEQLLLPKTITAEVHPVPLRKPKYDQGVEPELEPADDLDGGTEEQGEQDFRKYEEGFDPYSMFTPEQIMGKDVRLLRIKKEGSLDLALEGGVDSPIGKVVVSAVYERGAAERHGGIVKGDEIMAINGKIVTDYTLAEAEAALQKAWNQGGDWIDLVVAVCPPKEYDDELTFF
notes: Harmonin-a1 (USH1C), human, residues 194-552 of UniProt Q9Y6N9-1; also called PDZ2-end (isoA); source: E. coli BL21 (DE3) Rosetta, purified (Glutathione Sepharose 4B, size-exclusion chromatography)

Columns and labels:
Details in all cases: both partners purified
Harmonin-a PDZ2-end = target: B4; experiment: MST; YFP-fused partner constant at 100 nM, non-fluorescent protein titrated (16 two-fold dilutions); 20 mM Hepes pH 7.0, 100 mM NaCl, 1 mM EGTA, 0.5 mM TCEP, 0.05% Tween 20; Monolith NT.115
Myosin 7a MF2 = target: T1, Myosin 7a MF2; experiment: ITC; Microcal iTC200, 10 °C; 20 mM HEPES pH 7.0, 100 mM NaCl, 0.5 mM TCEP, 1 mM EGTA; single binding site model; GST removed from harmonin
Myosin 7b MF2 = target: T2, Myosin 7b MF2; experiment: as above
[1] = target: T3, Harmonin NPDZ1 (GST removed, as used in …); experiment: as above
YFP-Myosin 7b MF2 [2] = target: T4, YFP-Myosin 7b MF2; experiment: MST; YFP-fused partner constant at 100 nM, non-fluorescent protein titrated (16 two-fold dilutions); 20 mM Hepes pH 7.0, 100 mM NaCl, 1 mM EGTA, 0.5 mM TCEP, 0.05% Tween 20; Monolith NT.115
YFP-Myosin 7b MF2 [3] = target: T4, YFP-Myosin 7b MF2; experiment: as above; remark: listed apart in the source
YFP-FL-harmonin-ΔCter = target: T5, YFP-FL-harmonin-ΔCter; experiment: MST; as a1 but 150 mM NaCl (for FL-Harmonin-a); YFP-fused partner constant at 100 nM, non-fluorescent protein titrated
YFP-Myosin 7a MF2 = target: T6, YFP-Myosin 7a MF2; experiment: MST; YFP-fused partner constant at 100 nM, non-fluorescent protein titrated (16 two-fold dilutions); 20 mM Hepes pH 7.0, 100 mM NaCl, 1 mM EGTA, 0.5 mM TCEP, 0.05% Tween 20; Monolith NT.115

**Q.** With B1 as the binder, how does the Kd (Harmonin-a PDZ2-end) read?
**A.** Its Kd is 4200 nM.

**Q.** B2 was tested. Which Kd (Myosin 7a MF2) did it give?
**A.** The Kd was 1000 nM.

**Q.** And the Kd (Myosin 7b MF2)?
**A.** The Kd was 1400 ± 600 nM.

**Q.** What about the Kd [1] of the same binder?
**A.** The Kd was 10000 ± 3000 nM.

**Q.** With B3 as the binder, how does the Kd (YFP-Myosin 7b MF2 [2]) read?
**A.** The Kd was 68000 nM.

**Q.** What about the Kd (YFP-Myosin 7b MF2 [3]) of the same binder?
**A.** Its Kd is over 100000 nM.

**Q.** With B4 as the binder, how does the Kd (YFP-FL-harmonin-ΔCter) read?
**A.** Its Kd is 2000 nM.

**Q.** What about the Kd (YFP-Myosin 7a MF2) of the same binder?
**A.** Its Kd is 1880 nM.

**Q.** What about the Kd (YFP-Myosin 7b MF2 [3]) of the same binder?
**A.** The Kd was 2790 ± 790 nM.
